Three molecules from patent US6699969 (University of California, dated 2004) can be followed below.

First the molecules themselves.
T1: baculovirus-expressed S. purpuratus katanin p80 subunit with N-terminal His(6) tag (Strongylocentrotus purpuratus, UniProt O61585 1-690)
T1 construct: Expressed in Sf9 cells and purified on Ni-NTA; GenBank AF052433; also called p80 katanin; recombinant p80
T1 sequence: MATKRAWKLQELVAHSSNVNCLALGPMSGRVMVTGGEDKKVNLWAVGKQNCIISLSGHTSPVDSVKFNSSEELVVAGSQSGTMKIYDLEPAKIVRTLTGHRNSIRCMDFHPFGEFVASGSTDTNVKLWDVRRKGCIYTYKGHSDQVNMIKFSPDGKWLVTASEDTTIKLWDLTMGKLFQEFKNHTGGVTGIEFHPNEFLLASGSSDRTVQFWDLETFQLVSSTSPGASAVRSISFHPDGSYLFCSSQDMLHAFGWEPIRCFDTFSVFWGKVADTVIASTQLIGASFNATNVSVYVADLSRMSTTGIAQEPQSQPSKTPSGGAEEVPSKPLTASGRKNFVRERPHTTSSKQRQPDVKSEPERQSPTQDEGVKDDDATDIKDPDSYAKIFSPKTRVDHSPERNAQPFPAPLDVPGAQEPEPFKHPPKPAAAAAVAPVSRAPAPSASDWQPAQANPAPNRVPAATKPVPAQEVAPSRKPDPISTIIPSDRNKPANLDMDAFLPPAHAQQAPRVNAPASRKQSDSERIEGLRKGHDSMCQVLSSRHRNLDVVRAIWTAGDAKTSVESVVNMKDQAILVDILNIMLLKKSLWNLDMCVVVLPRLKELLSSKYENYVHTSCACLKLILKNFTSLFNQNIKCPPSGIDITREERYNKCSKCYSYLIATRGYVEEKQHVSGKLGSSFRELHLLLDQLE

T2: p80 delta 560-690, S. purpuratus p80 katanin deletion lacking the C-terminal 130 amino acids, with N-terminal … (Strongylocentrotus purpuratus, UniProt O61585 1-559)
T2 construct: Residues 560-690 deleted by the construct's name; The text says 'C-terminal 130 amino acids', but 560-690 counts 131 residues; also called 560-690 deletion derivative of p80; not shown: 37 amino acid N-terminal S-Tag from pCITE-4a+
T2 sequence: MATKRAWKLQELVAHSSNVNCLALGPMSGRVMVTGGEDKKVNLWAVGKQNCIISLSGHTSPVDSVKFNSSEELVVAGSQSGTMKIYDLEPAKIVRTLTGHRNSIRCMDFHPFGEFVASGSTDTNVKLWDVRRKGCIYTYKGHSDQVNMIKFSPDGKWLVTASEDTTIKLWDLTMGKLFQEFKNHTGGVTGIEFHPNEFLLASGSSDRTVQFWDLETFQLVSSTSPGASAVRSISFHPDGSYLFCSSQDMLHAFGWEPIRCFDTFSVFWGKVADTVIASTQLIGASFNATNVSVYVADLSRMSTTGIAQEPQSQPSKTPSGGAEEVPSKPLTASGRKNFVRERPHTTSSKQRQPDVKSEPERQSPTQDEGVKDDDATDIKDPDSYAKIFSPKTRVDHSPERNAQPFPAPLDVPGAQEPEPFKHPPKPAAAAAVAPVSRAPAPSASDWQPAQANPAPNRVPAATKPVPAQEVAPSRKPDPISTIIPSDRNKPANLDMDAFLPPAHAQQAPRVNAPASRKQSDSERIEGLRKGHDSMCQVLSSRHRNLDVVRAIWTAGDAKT

B1: p80 delta 303-690, C-terminal truncation of S. purpuratus p80 katanin containing only the WD40 domain, with N-terminal S-Tag (other)
chain: MATKRAWKLQELVAHSSNVNCLALGPMSGRVMVTGGEDKKVNLWAVGKQNCIISLSGHTSPVDSVKFNSSEELVVAGSQSGTMKIYDLEPAKIVRTLTGHRNSIRCMDFHPFGEFVASGSTDTNVKLWDVRRKGCIYTYKGHSDQVNMIKFSPDGKWLVTASEDTTIKLWDLTMGKLFQEFKNHTGGVTGIEFHPNEFLLASGSSDRTVQFWDLETFQLVSSTSPGASAVRSISFHPDGSYLFCSSQDMLHAFGWEPIRCFDTFSVFWGKVADTVIASTQLIGASFNATNVSVYVADLSRMS
notes: not shown: 37 amino acid N-terminal S-Tag from pCITE-4a+
B2: baculovirus-expressed S. purpuratus katanin p60 subunit with N-terminal His(6) tag (enzyme, not shown: small tags and cut ends)
chain: MSVDEICENTKMGREYALLGNYETSLVYYQGVLQQIQKLLTSVHEPQRKHQWQTIRQELSQEYEHVKNITKTLNGFKSEPAAPEPAPNHGRAAPFSHHQHAAKPAAAEPARDPDVWPPPTPVDHRPSPPYQRAARKDPPRRSEPSKPANRAPGNDRGGRGPSDRRGDARSGGGGRGGARGSDKDKNRGGKSDKDKKAPSGEEGDEKKFDPAGYDKDLVENLERDIVQRNPNVHWADIAGLTEAKRLLEEAVVLPLWMPDYFKGIRRPWKGVLMVGPPGTGKTMLAKAVATECGTTFFNVSSASLTSKYHGESEKLVRLLFEMARFYAPSTIFIDEIDSICSKRGTGSEHEASRRVKSELLIQMDGVSGPSAGEESSKMVMVLAATNFPWDIDEALRRRLEKRIYIPLPEIDGREQLLRINLKEVPLADDIDLKSIAEKMDGYSGADITNVCRDASMMAMRRRIQGLRPEEIRHIPKEELNQPSTPADFLLALQKVSKSVGKEDLVKYMAWMEEFGSV
notes: Expressed in Sf9 cells and purified on Ni-NTA; also called p60 katanin; recombinant p60
B3: in vitro translated S. purpuratus p60 katanin with 37 amino acid N-terminal S-Tag (enzyme)
chain: B2 chain
notes: Made in a rabbit reticulocyte transcription-translation reaction; not shown: 37 amino acid N-terminal S-Tag from pCITE-4a+

Series [1] concerns the target B3. Briefly: in vitro co-translation, immunoprecipitation with anti-p60 antibody, S-protein HRP blot. How it is done:
(§1) In vitro synthesis of proteins directly from plasmid DNAs was accomplished using the Single Tube Protein System 2, T7 (Novagen). […] For immunoprecipitations, lysates were incubated on ice with Pansorbin (Calbiochem)-antibody complexes, washed in NET buffer (50 mM Tris-Cl (pH 7.5), 150 mM NaCl, 0.1% Nonidet P-40, 1 mM EDTA (pH 8.0), 0.25% gelatin 0.02% sodium azide), then resuspended in SDS-PAGE sample buffer. In vitro translation products in both the pellets and supernatants from the immunoprecipitations were resolved by SDS-PAGE, transferred to nitrocellulose, probed with S-protein HRP conjugate (Novagen) and detected by chemiluminescence.

The target in series [2] is T1, baculovirus-expressed S. purpuratus …. Briefly: co-expression in insect cells, metal affinity purification, Coomassie staining. The procedure:
6×His-tagged katanin subunits were purified from lysates of baculovirus-infected insect cells by binding to Ni^2+-NTA Superflow followed by elution with imidazole, as described in the Experimental Procedures. […] Proteins bound to the resin were analyzed by SDS-PAGE followed by staining with Coomassie.
Deciphering the roles of the two katanin subunits is essential for understanding the enzyme's mechanism and biological activities. […] We therefore sought to express the two subunits together and separately and then test their enzymatic activities.

Series [3] deals with the molecule itself. Briefly: rotary-shadowing electron microscopy of recombinant p60.
The target in series [4] is T2, p80 delta 560-690, S. purpuratus p80 …. Description: in vitro co-translation, immunoprecipitation with anti-p60 antibody, S-protein HRP blot. How it is done:
as §1

Regarding B1, the binding result in series [1] is recorded as “no binding”.
As for B2, in series [2], the “p60:p80 molar ratio in the co-purified protein” value is approximately 0.9 mol p80 per 1.0 mol p60. Moreover, in series [3], the binding result is listed as “binds”.
Take B3: the binding result in series [4] is reported as “no binding”.
